Values quoted from earlier work in patent US12377133B2 (Ascendis Pharma Growth Disorders A/S, priority 2019, dated 2025).
Bridges are numbered along the chain shown (N, C = ends). Where no end group is shown, it is not given here.

Conditions: Lorget et al. 2012

BMN111: recombinant CNP-39: 37 C-terminal amino acids of human CNP-53 plus glycine and proline added at the N-terminus (PGQEHPNARKYKGANKKGLSKGCFGLKLDRIGSMSGLGC; disulfide 23-39; chains of the INN, looked up)
half-life: 20 min
